# Patent US20180030137A1 (ADURO BIOTECH HOLDINGS EUROPE B V, published 2018)
# T1: Macaca fascicularis PD-1 (Swiss-Prot entry B0LAJ3), full length, on cells (Macaca fascicularis, UniProt Q15116 25-288 (human entry))
# T1 construct: Full length open reading frame transiently expressed on CHO-K1 cells; also endogenous PD-1 on CD3/CD28-stimulated cynomolgus PBMCs; No signal peptide limits are stated for the cynomolgus entry; also called cyno PD-1; cynomolgus PD-1
# T1 chain: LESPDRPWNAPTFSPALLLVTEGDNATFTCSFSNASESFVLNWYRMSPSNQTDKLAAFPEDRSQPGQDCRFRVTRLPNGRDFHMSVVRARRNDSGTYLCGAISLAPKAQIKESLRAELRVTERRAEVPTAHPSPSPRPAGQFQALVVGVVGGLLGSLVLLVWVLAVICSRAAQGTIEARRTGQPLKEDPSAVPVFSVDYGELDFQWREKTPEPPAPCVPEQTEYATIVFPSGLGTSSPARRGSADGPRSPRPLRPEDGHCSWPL
# Columns and labels:
# [1] = target: T1, Macaca fascicularis PD-1 (Swiss-Prot …); experiment: flow cytometry on CD3/CD28-stimulated cynomolgus PBMCs, three animals
# Experimental: (§1) To this end Macacaca fascicularis (cynomolgus) blood was diluted 1:1 with PBS and added to 50 ml tubes containing 13 ml Lymphoprep 95%/PBS 5%. Cells were centrifuged for 30′ at 450 g and 20° C. without brake. Next, plasma was removed by aspiration and PBMCs were recovered from the plasma/Ficoll interface. PBMCs were washed twice times in PBS. Cells were frozen in liquid nitrogen and retrieved from the freezer on the day of the experiment. Since endogenous expression of PD-1 on resting T cells is low thus the thawed PBMCs were stimulated with αCD3/αCD28 coated beads (Gibco) for 48 hours.
# [2] = target: T2, Human PD-1 (Swiss-Prot entry Q15116), full length, on cells (human, UniProt Q15116 21-288); experiment: CELISA on CHO-K1.hPDCD1 cells; blocking of biotinylated hPD-L1 Fc
# T2 construct: Full length open reading frame of hPD-1 stably expressed on CHO-K1 cells; also endogenous PD-1 on CD3/CD28-stimulated human CD3+ T cells and PD-1 on transfected Jurkat cells; also called hPD-1; hPDCD1
# T2 sequence (Q15116 21-288, one chain of several): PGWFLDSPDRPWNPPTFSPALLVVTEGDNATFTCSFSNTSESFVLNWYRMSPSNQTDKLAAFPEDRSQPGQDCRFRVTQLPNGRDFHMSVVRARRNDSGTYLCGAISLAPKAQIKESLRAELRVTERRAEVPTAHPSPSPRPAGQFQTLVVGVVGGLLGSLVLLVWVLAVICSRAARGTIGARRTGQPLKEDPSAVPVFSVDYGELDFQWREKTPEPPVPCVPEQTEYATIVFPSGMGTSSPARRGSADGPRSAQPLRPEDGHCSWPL
# Experimental: (§2) To further characterize these mutant hPD-1 antibodies they were tested for binding to hPD-1 in CELISA format using CHO-K1 cells (American Type Culture Collection, Manassas, Va.), stably transfected with cDNA encoding the full length open reading frame of hPDCD1 (hPD-1), subcloned into the pCI-neo vector (Promega). Parental CHO-K1 or CHO-K1.hPDCD1 cells were seeded in culture medium (DMEM-F12 (Gibco) with 10% Fetal Bovine Serum (Hyclone) and Pen/Strep (Gibco)) in tissue culture plates and incubated for 48 hours at 37° C. Subsequently culture medium was removed and cells were incubated for 1 hour at 37° C. with the mutant hPD-1 antibodies (10 μg/ml (=66 nM) and dilutions thereof). Next, cells were washed with Phosphate-Buffered Saline/0.05% Tween (PBST) and incubated for 1 hour at 37° C. with Goat-anti-human IgG-HRP (Southern Biotech). Subsequently, cells were washed 3 times with PBST and anti-hPD1 immunoreactivity was visualized with 100 al TMB Stabilized Chromagen (Invitrogen). Reactions were stopped with 100 al 0.5 M H2SO4 and absorbances were read at 450 and 610 nm. […] Blockade of hPD-L1 binding by the mutant hPD-1 antibodies was tested in CELISA format. […] Reactions were stopped with 100 al 0.5 M H2SO4 and absorbances were read at 450 and 610 nm. Calculated IC50 values in Table 12 for the blockade of hPD-L1 represent the concentration at which half of the inhibition is observed.
# [3] = target: T2, Human PD-1 (Swiss-Prot entry Q15116), …; experiment: CELISA on CHO-K1.hPDCD1 cells; blocking of biotinylated hPD-L2 Fc
# Experimental: Parental CHO-K1 or CHO-K1.hPDCD1 cells were seeded in tissue culture plates and incubated for 72 hours at 37° C. in culture medium. […] Cells were then washed three times with PBST followed by addition of Streptavidin-HRP conjugate on the cells, which was incubated for 1 hour at 37° C. […] Reactions were stopped with 100 al 0.5 M H₂SO₄ and absorbances were read at 450 and 610 nm. […] Calculated IC50 values represent the concentration at which half of the inhibition is observed.
# [4] = target: T2, Human PD-1 (Swiss-Prot entry Q15116), …; experiment: CELISA on CHO-K1.hPDCD1 cells; blocking of biotinylated hPD-L1 Fc; remark: listed apart in the source
# Experimental: as §2, with “format. Parental CHO-K1 or CHO-K1.hPDCD1 cells were seeded in tissue culture plates and incubated for 72 hours at 37° C. in culture medium. Subsequently culture medium was removed and cells were incubated for 1 hour with the mutant hPD-1 antibodies (10 μg/ml (=66 nM) and dilutions thereof) at 37° C. […] Cells were then washed three times with PBST followed by addition of Streptavidin-HRP conjugate on the cells, which was incubated for 1 hour at 37° C.” for “format.”
# [5] = target: T3, hPD-1/Fc fusion protein (R&D Systems) (human, UniProt Q15116 25-167); experiment: BLI (Octet RED96), hPD-1/Fc amine-coupled, IgG in solution, 1:1 global fit
# T3 construct: Bought reagent; also called Recombinant hPD-1/Fc; not shown: Fc part of the bought fusion protein
# T3 sequence (Q15116 25-167 limits assumed): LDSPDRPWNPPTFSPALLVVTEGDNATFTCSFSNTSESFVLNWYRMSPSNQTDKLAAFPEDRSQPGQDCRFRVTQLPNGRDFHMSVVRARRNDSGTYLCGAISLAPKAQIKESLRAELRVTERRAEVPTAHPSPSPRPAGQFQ
# Experimental: This assay was, performed by coupling hPD-1/Fc fusion protein (R&D Systems) to amine-reactive second generation biosensors (Fortebio) using standard amine chemistry. […] Amine-reactive biosensors were pre-wet by immersing them in wells containing 0.1M MES pH=5.5 for 10 minutes. The biosensors were then activated using a 0.1M NHS/0.4M EDC mixture for 5 minutes. hPD-1/Fc fusion protein was coupled by immersing the biosensors in a solution of 12 ug/mL hPD-1/Fc in 0.1 M MES for 7.5 minutes. The biosensor surface was quenched using a solution of 1M ethanolamine for 5 minutes. Biosensors were equilibrated in Octet kinetics buffer (ForteBio) for 5 minutes. […] Dissociation was measured after transfer of the biosensors into kinetics buffer and monitoring of the interferometry signal for 45 minutes. The assay was run with a plate temperature of 30° C. The observed on and off rates (kobs and kd) were fit using a 1:1 binding global fit model comprising all concentrations tested, and the equilibrium binding constant KD was calculated.
# [6] = target: T1, Macaca fascicularis PD-1 (Swiss-Prot …); experiment: flow cytometry, Binding (%), on anti-CD3/anti-CD28 stimulated cynomolgus PBMCs, animal #2
# Experimental: as §1
binder,measurement,setting,value
"hPD1.29H5L4 (antibody, V domains shown, Expressed as human IgG4, kappa with the stabilizing S241P (Kabat) hinge mutation in HEK293 cells; also called humanized PD-1 antibody hPD1.29H5L4) VH: EVQLVQSGAEVKKPGASVKVSCKASGYIFTTYYIHWVKQAPGKGLEWIGWIFPGDVSTQYNEKFQDKATITVDKSASTAYMQLSSLRSEDTAVYYCTREAYDYAVYWGQGTLVTVSS VL: DIQMTQAPSSLSASVGDRVTITCKASQNVDTNVAWFQQKPGKAPKSLIFSASYRYSGVPSRFSGSGSGTDFTLTISSLQPEDFATYYCQQYNNYPFTFGGGTKLEIK",EC50,[1],1.6 nM
same,IC50,[2],0.7 nM
same,IC50,[3],0.61 nM
same,IC50,[4],1.3 nM
same,Kd,[5],0.011 nM
same,koff,[5],9.2e-06 s⁻¹
same,kon,[5],860000 M⁻¹ s⁻¹
same,EC50 (read off the curve),[6],~2 nM
